Source: paper PMC9365860 (Cell Reports, 2022)
Like-named read-outs stand apart in the source and are kept apart here.

Assays:
[1] = molecular target: T1, Recombinant S1 Wuhan (residues 1–674) (SARS-CoV-2, UniProt P0DTC2)
[2] = molecular target: Recombinant stabilized SARS-CoV-2 spike for ELISA (Wuhan) (SARS-CoV-2, Wuhan, UniProt P0DTC2, stabilised)
[3] = molecular target: T2, Full-length SARS-CoV-1 Spike on HEK 293T cells (SARS-CoV-1 (SARS-CoV), isolate not …, UniProt P59594)
[4] = molecular target: T3, Full-length SARS-CoV-2 Spike on HEK 293T cells (SARS-CoV-2, UniProt P0DTC2)
[5] = molecular target: T1, Recombinant S1 Wuhan (residues 1–674); assay: ELISA; conditions: both partners purified
[6] = molecular target: T4, Full-length NL63 Spike on HEK 293T cells (human coronavirus NL63, isolate not …, UniProt Q6Q1S2); assay: flow cytometry on cells; conditions: one partner purified
T4 construct: source: HEK293T, transfected (pcDNA3.1+), on the cell surface

[7] = molecular target: T5, Full-length MERS Spike on HEK 293T cells (MERS-CoV, isolate  (entry: …, UniProt K9N5Q8)); assay: flow cytometry on cells; conditions: one partner purified
T5 construct: source: HEK293T, transfected (pcDNA3.1+), on the cell surface

[8] = molecular target: T2, Full-length SARS-CoV-1 Spike on HEK …; assay: flow cytometry on cells; conditions: one partner purified
[9] = molecular target: T3, Full-length SARS-CoV-2 Spike on HEK …; assay: flow cytometry on cells; conditions: one partner purified
[10] = molecular target: T6, Full-length OC43 Spike on HEK 293T cells (human coronavirus OC43, isolate not …, UniProt P36334); assay: flow cytometry on cells; conditions: one partner purified
T6 construct: source: HEK293T, transfected (pcDNA3.1+), on the cell surface

[11] = molecular target: T7, Full-length 229E Spike on HEK 293T cells (human coronavirus 229E, isolate not …, UniProt P15423); assay: flow cytometry on cells; conditions: one partner purified
T7 construct: source: HEK293T, transfected (pcDNA3.1+), on the cell surface

Binder	binding result [1]	binding result [2]	binding result [3]	binding result [4]	binding result [5]	binding result [6]	binding result [7]	binding result [8]	binding result [9]	binding result [10]	binding result [11]
VA14_47 (antibody, V domains shown) VH: EVQLVESGGGVVQPGRSLRLSCGGSGFTFSSHAMHWVRQAPGKGLEWVAVISYDGSYQYYADSVKGRFTISRDNSKNALYLQMNSLRVEDTAIYYCARDTPDLETYYFDCWGQGTLVTVSS VL: EIVMTQSPGTLSLSPGERATLSCRASQSVSSSYLAWYQQKPGQAPRLLIYSACSRATGIPDRFSGSGSGTDFTLTISRLEPEDFAVYYCQQYGDSPRGSFGQGTKVDIK	binds	binds	binds	binds	–	–	–	–	–	–	–
P008_60 IgG (antibody, V domains shown, also called mAb P008_60; P008_060; source: HEK-293F, co-transfected heavy and light plasmids, purified (protein G)) VH: EVQLVESGGGVVQPGRSLRLTCAASGFIFSSYGMHWVRQAPGKGLEWVAVISYDGSYKYYADSVKGRFTISRDNSKNTLYLQMNSLRAEDTAVYYCTKADYYDFWSGYQKTYYYYMDVWGKGTTVTISS VL: not shown	–	–	–	–	binds	no binding (tested: 25 μg/mL)	no binding (tested: 25 μg/mL)	binds	binds	no binding (tested: 25 μg/mL)	no binding (tested: 25 μg/mL)
